Laboratory results reported in paper PMC6462529.

Legend:
[1] = molecular target: HIV-1 LAI Env (parental LAI virus) (HIV-1 (isolate LAI)) (UniProt P03377)
2G12 = assay: D7324-capture ELISA; conditions: PGT145-purified trimers; SOSIP.664 AUC-value printed 2.89
F105 = assay: D7324-capture ELISA; conditions: PGT145-purified trimers; SOSIP.664 AUC-value printed 0.12
gl-PG9 = assay: D7324-capture ELISA; conditions: PGT145-purified trimers; SOSIP.664 AUC-value printed 0.14
PGT151 = assay: D7324-capture ELISA; conditions: PGT145-purified trimers; SOSIP.664 AUC-value printed 0.75
VRC26.09 = assay: D7324-capture ELISA; conditions: PGT145-purified trimers; SOSIP.664 AUC-value printed 0.49
PGT145 = assay: D7324-capture ELISA; conditions: PGT145-purified trimers; SOSIP.664 AUC-value printed 0.68
CH01 = assay: D7324-capture ELISA; conditions: PGT145-purified trimers; SOSIP.664 AUC-value printed 0.32
PG16 = assay: D7324-capture ELISA; conditions: PGT145-purified trimers; SOSIP.664 AUC-value printed 0.55
CH103 = assay: D7324-capture ELISA; conditions: PGT145-purified trimers; SOSIP.664 AUC-value printed 1.34
gl-PG16 = assay: D7324-capture ELISA; conditions: PGT145-purified trimers; SOSIP.664 AUC-value printed 0.01
PGT121 = assay: D7324-capture ELISA; conditions: PGT145-purified trimers; SOSIP.664 AUC-value printed 1.60
PG9 = assay: D7324-capture ELISA; conditions: PGT145-purified trimers; SOSIP.664 AUC-value printed 1.70
gl-CH01 = assay: D7324-capture ELISA; conditions: PGT145-purified trimers; SOSIP.664 AUC-value printed 0.14

Substance	IC50 of neutralization of the parental LAI virus [1] [µg/mL]	ratio to parent (2G12)	ratio to parent (F105)	ratio to parent (gl-PG9)	ratio to parent (PGT151)	ratio to parent (VRC26.09)	ratio to parent (PGT145)	ratio to parent (CH01)	ratio to parent (PG16)	ratio to parent (CH103)	ratio to parent (gl-PG16)	ratio to parent (PGT121)	ratio to parent (PG9)	ratio to parent (gl-CH01)
PG9 (antibody)	2													
BG505 SOSIP.664-D7324 trimer E153C; R178C; G152E		1	4.7	1.4	1	1.3	1	1.9	1.7	2.3	3.9	1.5	2	2.1
